“Also recorded” adds a separate entry of the source.
B1: afamin: 75-kDa human serum glycoprotein with vitamin E-binding properties, member of the albumin gene family (protein, UniProt P43652 22-599, looked up)
Afamin: LPTQPRDIENFNSTQKFIEDNIEYITIIAFAQYVQEATFEEMEKLVKDMVEYKDRCMADKTLPECSKLPNNVLQEKICAMEGLPQKHNFSHCCSKVDAQRRLCFFYNKKSDVGFLPPFPTLDPEEKCQAYESNRESLLNHFLYEVARRNPFVFAPTLLTVAVHFEEVAKSCCEEQNKVNCLQTRAIPVTQYLKAFSSYQKHVCGALLKFGTKVVHFIYIAILSQKFPKIEFKELISLVEDVSSNYDGCCEGDVVQCIRDTSKVMNHICSKQDSISSKIKECCEKKIPERGQCIINSNKDDRPKDLSLREGKFTDSENVCQERDADPDTFFAKFTFEYSRRHPDLSIPELLRIVQIYKDLLRNCCNTENPPGCYRYAEDKFNETTEKSLKMVQQECKHFQNLGKDGLKYHYLIRLTKIAPQLSTEELVSLGEKMVTAFTTCCTLSEEFACVDNLADLVFGELCGVNENRTINPAVDHCCKTNFAFRRPCFESLKADKTYVPPPFSQDLFTFHADMCQSQNEELQRKTDRFLVNLVKLKHELTDEELQSLFTNFANVVDKCCKAESPEVCFNEESPKIGN
B2: recombinantly produced murine afamin: murine afamin expressed by stable transfection of CHO cells with mouse afamin cDNA, purified from serum-free culture supernatants (protein, UniProt O89020 22-608, looked up)
Afamin: LPTKPQDVDHFNATQKFIDENTTYLAIIAFSQYVQEASFDEVETLVKVMLDYRDRCWADNTLPECSKTANDAIQDMLCDMEGLPQKHNFSHCCGKAGFPRRLCFFYNKKANVGFLPPFPTLDPEEKCQAYKNNSESFLHLYMYEVARRNPFVFAPVLLAVAAWFEEAATTCCEQQQKATCFQAKAAPITQYLKASSSYQRNVCGALIKFGPKVLNSINVAVFSKKFPKIGFKDLTTLLEDVSSMYEGCCEGDVVHCIRSQSQVVNHICSKQDSISSKIKVCCEKKTLEREACIINANKDDRPEGLSLREAKFTESENVCQERDSDPDKFFAEFIYEYSRRHPDLSTPELLRITKVYMDFLEDCCSRENPAGCYRHVEDKFNETTQRSLAMVQQECKQFQELGKDTLQRHFLVKFTKAAPQLPMEELVSLSKEMVAALTTCCTLSDEFACVDNLADLVLGELCGVNTNRTINPAVDHCCKTDFAFRRHCFEHLKADTTYELPSVSALVSALHTDWCQPRKEDLQNKKHRFLVNLVKWMPGITDEEWLCLFTKFTAAREECSEVQEPESCFSPESSKTGDESQATEKQR

What was measured:
[1] = human afamin binding alpha- and gamma-tocopherol, radioligand assay; read-out: binding-dissociation constant; cited from earlier work
[2] = system: infertile male chimeric animals; experiment: afamin substitution via intraperitoneal minipump in infertile male chimeric afamin knock-out mice: fertility and testes histology; assay type: in vivo, mouse
From the text: Chimeric mice from ES cells carrying the disrupted afamin allele were generated by microinjection of 10-15 ES cells into 3.5-day-old embryos of the C57B1/J mouse strain. Chimeric animals were mated to C57B1/J or 129/Sv partners, respectively, to establish the afamin mutant allele on a C57B1/J×129/Sv hybrid and on a 129/Sv inbred genetic background. Loss of afamin mRNA and protein was checked by Northern and Western blot analysis.
In order to confirm the role of afamin for fertility, infertile male chimeric animals were substituted with recombinantly produced murine afamin via minipump, which was implanted intraperitonially and released afamin continuously into the organism for 28 days (which corresponds to the time required for spermiogenesis in mice). Control mice received physiological saline solution instead of afamin. At weekly time intervals, plasma was obtained from substituted mice. […] Offspring were, however, exclusively wild-type not carrying the recombinant allele.

[3] = afamin plasma concentration by ELISA during afamin substitution; assay type: in vivo, mouse; settings: infertile male chimeric mice, intraperitoneal minipump, continuous release for 28 days, plasma at weekly intervals
From the text: In order to analyse the afamin concentrations in the partial knock-out mice, an ELISA kit for quantifying afamin in mouse plasma was developed. For that purpose, a polyclonal antibody against mouse afamin was obtained by immunising rabbits with purified recombinant murine afamin. Recombinant expression of murine afamin was achieved by stable transfection of CHO cells with mouse afamin cDNA followed by purification from serum-free culture supernatants. The obtained polyclonal anti-mouse afamin antibody was purified by affinity chromatography on a sepharose column to which recombinant afamin was covalently bound. This affinity-purified antibody was used to coat ELISA-plates and, after conjugation with horse-radish peroxidase, also for detection using an appropriate substrate reaction. Purified recombinant afamin (quantified by amino acid compositional analysis) served as standard. With this ELISA, an afamin plasma concentration in the range of 6-10 mg/l was measured in wild-type mice which is roughly only 10% of respective plasma levels in humans (3).
In order to confirm the role of afamin for fertility, infertile male chimeric animals were substituted with recombinantly produced murine afamin via minipump, which was implanted intraperitonially and released afamin continuously into the organism for 28 days (which corresponds to the time required for spermiogenesis in mice). […]

| Molecule | Kd [1] | histological examination of testes, spermiogenesis ([2]; after afamin substitution and sacrifice) | fertility (mating with female wild-type mice) ([2]; intraperitoneal minipump, 28 days substitution) | plasma concentrations of afamin [3] |
| --- | --- | --- | --- | --- |
| B1 | 18 µM | – | – | – |
| B2 | – | restoration of normal testes histology, spermiogenesis; also recorded: completely normalised testes tissue and spermiogenesis | restoration of normal testes histology, spermiogenesis and fertility; also recorded: resulted in several pregnancies and births | immediately rose to physiological levels and stayed constant during the infusion period |

From patent publication US20110179509A1, “Use of Afamin for Treating Fertility Disorders” (VITATEQ BIOTECHNOLOGY GMBH, priority 2008, published 2011)
